Laboratory results taken from publication PMC2174279.

Assays:
[1] = target: Arc40p (LexA two-hybrid bait) (S. cerevisiae) (UniProt P38328); test: two-hybrid
[2] = target: Arc40p-HA (S. cerevisiae) (UniProt P38328); test: co-IP
Bee1p-HA (S. cerevisiae) = test: co-IP
[3] = target: Bee1p (1-633) (S. cerevisiae); test: two-hybrid
[4] = target: peptide PRP2 (…), LexA bait; test: two-hybrid
[5] = target: Bee1p (1-165) (S. cerevisiae); test: two-hybrid
[6] = target: Arc19p (LexA two-hybrid bait) (S. cerevisiae) (UniProt P33204); test: two-hybrid
[7] = target: peptide PRP2-1 (…), LexA bait; test: two-hybrid
[8] = target: Bee1p (166-633) (S. cerevisiae); test: two-hybrid

A LacZ expression (two-hybrid) [1] of 18 Miller units was found for “Bee1p-WH2-AD (531-633) (domain or fragment)” in this work.
A percent of the total Myo3p in the extract coimmunoprecipitated [2] of 1% and a percent of the total Myo3p in the extract coimmunoprecipitated (Bee1p-HA (S. cerevisiae)) of 1% were found for “Myo3p (from UniProt P36006 1-1272) (natural protein)” in this work.
A percent coimmunoprecipitated [2] of 0.1% was found for “Myo3p(SH3-W1157S) (from UniProt P36006 1-1272) (natural protein)” in this work.
A LacZ expression (two-hybrid) [1] of 151 Miller units was found for “Myo3p-AD (1182-1271) (from UniProt P36006 1182-1271) (domain or fragment)” in this work.
A LacZ expression (two-hybrid) [1] of 25 Miller units was found for “Myo3p-AD-32 (1239-1271) (from UniProt P36006 1239-1271) (domain or fragment)” in this work.
A LacZ expression (two-hybrid) [3] of 1760 Miller units was found for “Myo3p-SH3 (1118-1188) (from UniProt P36006 1118-1188) (domain or fragment)” in this work.
A LacZ expression (two-hybrid) [1] of 366 Miller units was found for “Myo3p-SH3(W1157S)-AD (1118-1271) (from UniProt P36006 1118-1271) (domain or fragment)” in this work.
A LacZ expression (two-hybrid) [4] of 210 Miller units, a LacZ expression (two-hybrid) [1] of 458 Miller units and a LacZ expression (two-hybrid) [5] of 1200 Miller units were found for “Myo3p-SH3-AD (1118-1271) (from UniProt P36006 1118-1271) (domain or fragment)” in this work. It also gave a LacZ expression (two-hybrid) [6] of 152 Miller units, a LacZ expression (two-hybrid) [7] of 219 Miller units and a LacZ expression (two-hybrid) [8] of 113 Miller units. For the same substance, the LacZ expression (two-hybrid) [3] was 715 Miller units.
A percent coimmunoprecipitated (Bee1p-HA (S. cerevisiae)) of 1% was found for “Myo3pΔAD (from UniProt P36006 1-1188) (domain or fragment)” in this work.
